Source: US20150133367

Target: T1, SCEEVCKPGGP (SEQ ID NO:47)
T1 chain: SCEEVCKPGGP

B1: Cathepsin K (protein)
chain: APDSVDYRKKGYVTPVKNQGQCGSCWAFSSVGALEGQLKKKTGKLLNLSPQNLVDCVSENDGCGGGYMTNAFQYVQKNRGIDSEDAYPYVGQEESCMYNPTGKAAKCRGYREIPEGNEKALKRAVARVGPVSVAIDASLTSFQFYSKGVYYDESCNSDNLNHAVLAVGYGIQKGNKHWIIKNSWGENWGNKGYILMARNKNNACGIANLASFPKM
With B1 the “cleavage of the peptide by the enzyme” value was “This peptide did not inhibit cathepsin K but rather was cleaved by the enzyme”.
